B1: LINE1-full (parent)
chain: UACGUAGGUGGUUUUCCCCUGAUAGUGCUAAGGGGGCCUGGAAGUUUGGACUGGGCAGAGCUCAACACAGCGUGGCAAAGUGGCUGUGGCUAGACUGCCUCUCUGGAUUCCUCGUCACUCAGCAGGGCAUCUCUGAGAGAAAUGCC

Variants of: B1
Experiment: self-cleavage, relative activity (ratio to wild type); higher = more cleavage; in vitro, sequencing; the parent is a self-cleaving ribozyme
UACGUAGGUGGCUUUCCCCUGAUAGUGCUAAGGGGGCCAGGAAGUUUGGACUGGGCAGAGCUCAACACAGCGUGGCAAAGUGGCUGUGGCUAGACUGCCUCUCUGGAUUCCUCGUCACUCAGCAGGGCAUCUCUGAGAGAAAUGCC [U12C U39A] gave a self-cleavage of 1.32. Work on UACGUAGGUGGUUUUCCCCUGAUAGUGCUAAGGGGGCCUGGAAGUUUGGACUGGGCAGAGCCCAACACAGCGUGGCAAAGUGGCUGUGGCUAGACUGCCUCUCUGGAUUCCUCGUCACUCAGCAGGGCAUCCCUGAGAGAAAUGCC [U62C U132C] yielded a self-cleavage of 0.06. UACGUAGGUGGUUUUCCCCUGAUAGUGCUAAGGGGGCCUGGAAGUUUGGACUGGGCAGAGCUCAACACAGCGUGGCAAAGUGGCUGUGGCUAGACUACCUCUCUGGAUUCCUCGUCACUCGGCAGGGCAUCUCUGAGAGAAAUGCC [G97A A121G] gave a self-cleavage of 0.05. UACGUAGGUGGUUUUCCCCUGAUAGUGCUAAGGGGGCCUGGAAGUUUGGACUGGGCAGAGCUCAACACAGCGUGGCAAAGUGGCUGUGGCUAGACUGCCUCUCUGGAUUCCUUGUCACUCAGCAGGGCUUCUCUGAGAGAAAUGCC [C113U A129U] showed a self-cleavage of 1.86. In the case of UACGUAGGUGGUUUUCCCCUGAUAGUGCUAAGGGGGCCUGGAAGUUUGGACUGGGCAGAGCUCAACACAGCGUGGCAAAGUGGCUGUGGCUAGACUGCCUCUCUGGAUUCCUUGUCACUCAGCGGGGCAUCUCUGAGAGAAAUGCC [C113U A124G], the self-cleavage is reported as 1.31. Variant UACGUAGGUGGUUUUCCCCUGAUAGUGCUAAGGGGGCCUGGAAGUUUGGACUGGGCAGAGCUCAACACAGCGUGGCAAAGUGGCUGUGGCCAGACUGCCUCUCUGGAUUCCUCGUCACUCAGCAGGGCAUCUCCGAGAGAAAUGCC [U91C U134C] has a self-cleavage of 0.87. UAUGUAGGUGGUUUUCCCCUGAUAGUGCUAAGGGGGCCUGGAAGUUUGGACUGGGCAGAGCUCAACACAGCGUGGCAAAGUGGCUGUGGCUAGACUGCCUCUCUGGAUUCCUCGUCACUCAGCAGGGCAUCUCUGAGAGAAGUGCC [C3U A142G] gave a self-cleavage of 0.47. For UACGUAGGUGGUUUUCCCCUGAUAGUGCUAAGGGGGCCUGGAAGUUUGGACUGGGCAGAGCUCAACACAGCGUGGCAAAGUGGCUGUGACUAGACUGCCUCUCUGGAUUCCUCGUCACUCAGCAGGGCAUCUCUGGGAGAAAUGCC [G89A A136G], the self-cleavage was 0.04. Work on UACGUAGGUGGUUUUCCCCUGAUAGUGCUAAGGGGGCCUGGAAGUUUGGACUGGGCAGAGCUCAACACAGCGUGGCAAGGUGGCUGUGGCUAGACUGCCUCGCUGGAUUCCUCGUCACUCAGCAGGGCAUCUCUGAGAGAAAUGCC [A79G U102G] yielded a self-cleavage of 0.49. UACGUAGGUGGUUUUCCCCUGAUAGUGCCAAGGGGGCCUGGAAGUUUGGACUGGGCAGAGCUCAACACAGCGUGGCAAAGUGGCUGUGGCUAGACUGCCUCUCUGGAUUCCUCGUCACCCAGCAGGGCAUCUCUGAGAGAAAUGCC [U29C U119C] showed a self-cleavage of 1.45. Work on UACGUAGGUGGUUUUCCCCUGAUAGUGCUAAGGGGGCCUUGAAGUUUGGACAGGGCAGAGCUCAACACAGCGUGGCAAAGUGGCUGUGGCUAGACUGCCUCUCUGGAUUCCUCGUCACUCAGCAGGGCAUCUCUGAGAGAAAUGCC [G40U U52A] yielded a self-cleavage of 0.99. UACGUAGGUGGUUUUCCCCUGAUAGUGCUAAGGGGGCCUGGAAGUUUGGACUGGGCAGAGCUCAACACAGCGAGGCAAAGGGGCUGUGGCUAGACUGCCUCUCUGGAUUCCUCGUCACUCAGCAGGGCAUCUCUGAGAGAAAUGCC [U73A U81G] gave a self-cleavage of 1.85. UACGUAGGUGGUUUUCCCCUGAUAGUGCUAAGGGGGCCUGGAAGUUUGGACUGGGCAGAGCUCAACACAGCGUGGCAAAGUGGCUGUGGCUAGACUGCCUCUCUGGAUUCCUCAUCACUCAGCAGGGCAUCACUGAGAGAAAUGCC [G114A U132A] gave a self-cleavage of 1.64. Work on UACGUAGGUGGUUUUCCCCUGAUAGUGCUAAGGGGGCCUGGAAGUUUGGACUGGGCAGAGCCCAACACAGCGUGGCAAAGUGGCUGUGGCUAGACUGCCUCUCUGGAUUCCUCGUCCCUCAGCAGGGCAUCUCUGAGAGAAAUGCC [U62C A117C] yielded a self-cleavage of 0.03. Work on UACGUAGGUGGUUUUCCCCUGAUAGUGCUAAGGGGGCCUGGAAGUUUGGACUGGGCAGAGCUCAACACAGCGUGGCAAAGUGGCUGUGGCUAGACUGCCUCUCUGGAUUCCUCGUCACUCAGCAGGGUAUCUCUGAGAGAAACGCC [C128U U143C] yielded a self-cleavage of 1.26. Work on UACGUAGGUGGUUUUCCCCUGAUAGUGCUAAGGGGGCCUGGAAGUUUGGACUGGGCAGAGCUCAACACAGCGUGGCAAAGUGGCUGUGGCUAGACUGCCUCCCUGGAUUCCUCGUCACUCAGCAGGGCAUCUCUGAGAGAACUGCC [U102C A142C] yielded a self-cleavage of 1.73. Variant UACGUAGGUGGUUUUCCCCUGAUAGUGCUAAGGGGGCCUGGAAGUUUGGACUGGGCAGAGCUCAACACAGCGUGGCAAAGUGGCUGUGGCUAGGCUGCCUCUCUGGAUUCCUCGUCACUCAGCAGGGCAUCUCUGAGAGAAAUGCC [A94G] has a self-cleavage of 0.31. Work on UACGUAGGUGGUUUUCCCCUGAUAGUGCUAGGGGGGCCUGGAAGUUUGGACUGGGCAGAGCUCAACGCAGCGUGGCAAAGUGGCUGUGGCUAGACUGCCUCUCUGGAUUCCUCGUCACUCAGCAGGGCAUCUCUGAGAGAAAUGCC [A31G A67G] yielded a self-cleavage of 0.5. Work on UACGUAGGUGGUUUUCCCCUGAUAGUGUUAAGGGGGCCUGGAAGUUUGGACUGGGCAGAGCUCAACACAGCGUGGCAAAGUGGCUGUGGCUAGACUGCCUCCCUGGAUUCCUCGUCACUCAGCAGGGCAUCUCUGAGAGAAAUGCC [C28U U102C] yielded a self-cleavage of 0.15. In the case of UACGUAGGUGGUUUUCCCCGGAUAGUGCUAAGGGGGCCUGGAAGUUUGGACUGGGCAGAGCUCAACACAGCGUGGCAGAGUGGCUGUGGCUAGACUGCCUCUCUGGAUUCCUCGUCACUCAGCAGGGCAUCUCUGAGAGAAAUGCC [U20G A78G], the self-cleavage is reported as 1.1.
